Drawing on article PMC12607630 (2025), this text covers Kd for two molecules.

Assay in all cases: BLI
For orientation: BLI is a label-free optical method that tracks binding on a fibre tip over time.

The target in one assay is T1, SUMO-FtsZ^316-370 (Escherichia coli, UniProt P0A9A6 316-370).
T1 chain: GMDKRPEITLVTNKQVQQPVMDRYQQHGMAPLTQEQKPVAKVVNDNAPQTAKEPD

Another assay has as its target T2, SUMO-FtsZ^370-383 (Escherichia coli, UniProt P0A9A6 370-383).
T2 chain: DYLDIPAFLRKQAD

Another assay has as its target 6×His-ZapC^F30D (Escherichia coli, UniProt P75862 1-180, F30D).
In another assay the target is 6×His-ZapC^K94D (Escherichia coli, UniProt P75862 1-180, K94D).

B1: ZapC (untagged) (natural protein)
chain: not shown
With B1, the equilibrium dissociation constant (Kd) with SUMO-FtsZ^316-370 came out at 50.7 µM; with SUMO-FtsZ^370-383 it was 11.4 µM.

B2: FtsZ (wild-type, untagged) (natural protein)
chain: MFEPMELTNDAVIKVIGVGGGGGNAVEHMVRERIEGVEFFAVNTDAQALRKTAVGQTIQIGSGITKGLGAGANPEVGRNAADEDRDALRAALEGADMVFIAAGMGGGTGTGAAPVVAEVAKDLGILTVAVVTKPFNFEGKKRMAFAEQGITELSKHVDSLITIPNDKLLKVLGRGISLLDAFGAANDVLKGAVQGIAELITRPGLMNVDFADVRTVMSEMGYAMMGSGVASGEDRAEEAAEMAISSPLLEDIDLSGARGVLVNITAGFDLRLDEFETVGNTIRAFASDNATVVIGTSLDPDMNDELRVTVVATGIGMDKRPEITLVTNKQVQQPVMDRYQQHGMAPLTQEQKPVAKVVNDNAPQTAKEPDYLDIPAFLRKQAD
Regarding B2, the dissociation constant Kd came to 2.97 µM with 6×His-ZapC^F30D and 2.1 µM with 6×His-ZapC^K94D.

Usually Kd stands for a measure of binding affinity in units of concentration. Low values mean a tighter complex, high ones a looser complex.
